Changes are numbered by the printed parent chain. Numbers in names are those of the source.

The target in assay [1] is T1, Dvl2 Lys446Ala (construct not stated) (murine, UniProt Q60838 1-736, Lys446Ala).
T1 sequence (looked up): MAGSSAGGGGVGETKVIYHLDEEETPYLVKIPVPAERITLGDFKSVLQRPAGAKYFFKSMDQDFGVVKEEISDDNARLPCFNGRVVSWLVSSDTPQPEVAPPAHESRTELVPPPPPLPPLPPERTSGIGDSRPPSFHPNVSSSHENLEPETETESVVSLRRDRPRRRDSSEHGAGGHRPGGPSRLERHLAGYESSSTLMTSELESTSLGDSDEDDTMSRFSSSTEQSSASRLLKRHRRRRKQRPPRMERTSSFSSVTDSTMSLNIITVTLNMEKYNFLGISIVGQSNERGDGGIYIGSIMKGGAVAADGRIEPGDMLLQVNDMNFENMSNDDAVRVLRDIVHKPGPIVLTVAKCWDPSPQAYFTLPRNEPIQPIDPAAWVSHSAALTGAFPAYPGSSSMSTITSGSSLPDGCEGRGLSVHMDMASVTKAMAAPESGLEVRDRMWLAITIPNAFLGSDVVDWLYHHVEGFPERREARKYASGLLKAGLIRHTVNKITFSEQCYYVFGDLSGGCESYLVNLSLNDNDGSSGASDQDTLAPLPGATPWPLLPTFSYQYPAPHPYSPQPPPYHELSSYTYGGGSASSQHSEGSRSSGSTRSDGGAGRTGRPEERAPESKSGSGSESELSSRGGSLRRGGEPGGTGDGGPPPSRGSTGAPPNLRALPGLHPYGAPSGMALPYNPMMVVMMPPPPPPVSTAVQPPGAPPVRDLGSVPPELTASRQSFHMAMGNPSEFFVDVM

Assay [2] deals with T2, Dvl2 Lys446Met (construct not stated) (murine, UniProt Q60838 1-736, Lys446Met).
T2 sequence (looked up): T1 sequence (looked up) with A446M

Assay [3] concerns the target T3, His-tagged μ2C (μ2 170–435), wild type (rat, UniProt P84092 170-435).
T3 sequence (looked up): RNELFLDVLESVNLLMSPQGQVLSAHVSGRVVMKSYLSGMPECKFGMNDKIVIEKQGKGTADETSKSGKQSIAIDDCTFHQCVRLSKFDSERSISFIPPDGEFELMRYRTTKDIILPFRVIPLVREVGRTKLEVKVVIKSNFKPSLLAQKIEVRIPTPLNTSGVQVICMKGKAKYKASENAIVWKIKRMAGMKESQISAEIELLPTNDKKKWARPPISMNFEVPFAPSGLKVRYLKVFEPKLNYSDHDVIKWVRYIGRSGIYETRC
In words: pull-down.

In assay [4] the target is T4, GST-μ2C wild type (μ2 170–435) (rat, UniProt P84092 170-435).
T4 sequence (looked up): T3 sequence (looked up)
In words: pull-down.

Assay [5] deals with T5, GST-μ2C F407A (rat, UniProt P84092 170-435, Phe407 to alanine).
T5 sequence (looked up): T3 sequence (looked up) with F238A
The assay can be described thus: pull-down.

In assay [6] the target is T6, GST-μ2C K405A (rat, UniProt P84092 170-435, Lys405 to alanine).
T6 sequence (looked up): T3 sequence (looked up) with K236A
In words: pull-down.

Assay [7] addresses T7, GST-μ2C E211A (rat, UniProt P84092 170-435, Glu211 to alanine).
T7 sequence (looked up): T3 sequence (looked up) with E42A
In words: pull-down.

Assay [8] addresses T8, GST-μ2C K213A (rat, UniProt P84092 170-435, Lys213 to alanine).
T8 sequence (looked up): T3 sequence (looked up) with K44A
In words: pull-down.

B1: μ2 (construct of the experiments not shown is not stated) (natural protein, rat, UniProt P84092 1-435, looked up)
chain: MIGGLFIYNHKGEVLISRVYRDDIGRNAVDAFRVNVIHARQQVRSPVTNIARTSFFHVKRSNIWLAAVTKQNVNAAMVFEFLYKMCDVMAAYFGKISEENIKNNFVLIYELLDEILDFGYPQNSETGALKTFITQQGIKSQHQTKEEQSQITSQVTGQIGWRREGIKYRRNELFLDVLESVNLLMSPQGQVLSAHVSGRVVMKSYLSGMPECKFGMNDKIVIEKQGKGTADETSKSGKQSIAIDDCTFHQCVRLSKFDSERSISFIPPDGEFELMRYRTTKDIILPFRVIPLVREVGRTKLEVKVVIKSNFKPSLLAQKIEVRIPTPLNTSGVQVICMKGKAKYKASENAIVWKIKRMAGMKESQISAEIELLPTNDKKKWARPPISMNFEVPFAPSGLKVRYLKVFEPKLNYSDHDVIKWVRYIGRSGIYETRC
B1: the “fold decrease of μ2 affinity against wild-type Dvl2” value in assay [1] and in assay [2] was around 2 fold throughout.

B2: GST-Dvl2 417–588, wild type (domain or fragment, murine, UniProt Q60838 417-588, looked up)
chain: LSVHMDMASVTKAMAAPESGLEVRDRMWLKITIPNAFLGSDVVDWLYHHVEGFPERREARKYASGLLKAGLIRHTVNKITFSEQCYYVFGDLSGGCESYLVNLSLNDNDGSSGASDQDTLAPLPGATPWPLLPTFSYQYPAPHPYSPQPPPYHELSSYTYGGGSASSQHSEG
Consider B2, for which the binding result in assay [3] is reported as “binds”.

B3: GST-Dvl2 417–588 N451A (domain or fragment, murine, UniProt Q60838 417-588, looked up)
chain: B2 chain with N35A
In the case of B3, the binding result in assay [3] is recorded as “binds”.

B4: GST-Dvl2 417–588 D441K (domain or fragment, murine, UniProt Q60838 417-588, looked up)
chain: B2 chain with D25K
Consider B4, for which, in assay [3], the binding result is listed as “binds”.

B5: GST-Dvl2 417–588 R489A (domain or fragment, murine, UniProt Q60838 417-588, looked up)
chain: B2 chain with R73A
In the case of B5, the binding result in assay [3] is “binds”.

B6: His-tagged Dvl2 407–588 (domain or fragment, murine, UniProt Q60838 407-588, looked up)
chain: SLPDGCEGRGLSVHMDMASVTKAMAAPESGLEVRDRMWLKITIPNAFLGSDVVDWLYHHVEGFPERREARKYASGLLKAGLIRHTVNKITFSEQCYYVFGDLSGGCESYLVNLSLNDNDGSSGASDQDTLAPLPGATPWPLLPTFSYQYPAPHPYSPQPPPYHELSSYTYGGGSASSQHSEG
For the molecule B6, the binding result in assay [4], in assay [5], in assay [6], in assay [7] and in assay [8] was “binds” throughout.

(Values after article PMC2992793 (Structure (London, England : 1993), 2010).)
